According to PMC3816987 (Journal of molecular recognition : JMR, 2010):

T1: GST fusion protein of Tulp1-N (1M-298Q) (mouse, UniProt Q9Z273 1-298)
T1 sequence (looked up): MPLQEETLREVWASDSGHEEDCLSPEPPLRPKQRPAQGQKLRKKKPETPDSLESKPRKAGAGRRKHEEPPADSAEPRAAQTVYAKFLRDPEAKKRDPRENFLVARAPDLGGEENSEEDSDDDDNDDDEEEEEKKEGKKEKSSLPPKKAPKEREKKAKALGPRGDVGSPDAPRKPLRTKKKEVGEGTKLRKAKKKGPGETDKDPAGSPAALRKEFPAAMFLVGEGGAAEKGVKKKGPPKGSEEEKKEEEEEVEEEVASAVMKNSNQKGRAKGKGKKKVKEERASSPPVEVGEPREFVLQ

T2: GST-free tubby-N (tubby N-terminus, 1M-242P) (mouse, UniProt P50586 1-242)
T2 sequence (looked up): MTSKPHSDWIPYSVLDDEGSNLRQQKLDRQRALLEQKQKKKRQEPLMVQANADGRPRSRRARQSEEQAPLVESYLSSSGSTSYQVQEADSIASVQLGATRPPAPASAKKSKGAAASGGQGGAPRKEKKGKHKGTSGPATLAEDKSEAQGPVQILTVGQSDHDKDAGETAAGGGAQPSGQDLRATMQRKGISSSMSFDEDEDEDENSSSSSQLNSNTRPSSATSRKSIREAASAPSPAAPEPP


How the values were obtained:
[1] = target: T1, GST fusion protein of Tulp1-N (1M-298Q); assay: phage binding assay
[2] = target: T2, GST-free tubby-N (tubby N-terminus, …); assay: phage binding assay

Binder	binding specificity, clonal phage vs. control phage [1] [X]	binding specificity, clonal phage vs. control phage [2] [X]
Hmg. nucleosomal binding domain 2 (Hmgn2) phage clone, 1M-56K (domain or fragment, biotin on the C-terminal biotinylation tag (E. coli BirA ligase)) not shown	~37.8	~33.4
IQ motif containing GTPase activating protein 2 (Iqgap2) phage clone, 1232E-1368E (domain or fragment, mouse, UniProt Q3UQ44 1232-1368, looked up, biotin on the C-terminal biotinylation tag (E. coli BirA ligase)) EKSDLLNELLESLGEVPTVESFLGEGAVDPNDPNKENTLNQLSKTEISLSLTSKYDVKDGEAVDGRSLMIKTKKLIIDVTRNQPGSTLTEILETPATGQQELEHAKDMESRAVVDSRTPEEGKQSQAVIEDARLPLE	–	~53.2
CCCTC-binding factor (Ctcf) phage clone, 136G-400T (domain or fragment, mouse, UniProt Q61164 136-400, looked up, biotin on the C-terminal biotinylation tag (E. coli BirA ligase)) GAYENEVSKEGLAESEPMICHTLPLPEGFQVVKVGANGEVETLEQGELPPQEDSSWQKDPDYQPPAKKTKKTKKSKLRYTEEGKDVDVSVYDFEEEQQEGLLSEVNAEKVVGNMKPPKPTKIKKKGVKKTFQCELCSYTCPRRSNLDRHMKSHTDERPHKCHLCGRAFRTVTLLRNHLNTHTGTRPHKCPDCDMAFVTSGELVRHRRYKHTHEKPFKCSMCDYASVEVSKLKRHIRSHTGERPFQCSLCSYASRDTYKLKRHMRT	~7.7	~117
Regulated endocrine-specific protein 18 (Resp18) phage clone, 68V-134K (domain or fragment, mouse, UniProt P47939-1 68-134, looked up) VPEGMFWADDIAYELMTKKVEHLSRLHPQYPCRKDMKAVSPTANAGVRSKQEEKLQLLSPQKSPTVK-{biotinylation tag(biotin)}	–	~10.3
Tubby like protein 1 (Tulp1) phage clone, 125D-243E (domain or fragment, mouse, UniProt Q9Z273 125-243, looked up, biotin on the C-terminal biotinylation tag (E. coli BirA ligase)) DDDEEEEEKKEGKKEKSSLPPKKAPKEREKKAKALGPRGDVGSPDAPRKPLRTKKKEVGEGTKLRKAKKKGPGETDKDPAGSPAALRKEFPAAMFLVGEGGAAEKGVKKKGPPKGSEEE	~32.8	~49
